Experimental data reported in patent US20230265179A1 (TWIST BIOSCIENCE, published 2023).

T1: IL1RL2 over-expressed on Expi293 cells (UniProt Q9HB29 20-575, limits assumed)
T1 construct: whole, on cells; Target of the flow cytometry assay; MFI ratio is over-expressing cells over parent cells
T1 sequence (looked up): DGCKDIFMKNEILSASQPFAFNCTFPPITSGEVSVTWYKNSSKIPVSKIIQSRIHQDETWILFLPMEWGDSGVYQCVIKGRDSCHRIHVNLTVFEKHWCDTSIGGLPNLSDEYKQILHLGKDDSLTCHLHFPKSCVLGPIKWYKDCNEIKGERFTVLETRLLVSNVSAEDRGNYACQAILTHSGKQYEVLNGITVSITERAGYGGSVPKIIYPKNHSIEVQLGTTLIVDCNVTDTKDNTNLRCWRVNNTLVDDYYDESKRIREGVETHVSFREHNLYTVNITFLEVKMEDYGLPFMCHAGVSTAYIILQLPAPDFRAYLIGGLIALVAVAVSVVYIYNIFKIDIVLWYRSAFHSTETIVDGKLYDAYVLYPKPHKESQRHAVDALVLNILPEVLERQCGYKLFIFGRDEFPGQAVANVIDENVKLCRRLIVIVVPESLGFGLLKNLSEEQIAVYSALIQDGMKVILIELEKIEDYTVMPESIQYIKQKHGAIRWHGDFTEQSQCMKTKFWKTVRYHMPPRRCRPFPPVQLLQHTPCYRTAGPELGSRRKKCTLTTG


How the values were obtained:
[1] = biological target: T1, IL1RL2 over-expressed on Expi293 cells; experiment: flow cytometry, over-expressing Expi293 vs parent cells, 100 nM antibody;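 further: ratio is mean fluorescence intensity on over-expressing Expi293 cells divided by that measured on parental Expi293 cells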
Description: (§1) All incubations and washes were in buffer containing PBS+1% BSA. MFI Ratio is defined by the mean fluorescence intensity (MFI) of the cytokine over-expressing Expi293 cell over the Expi293 parent cell. […] EC50 was calculated in GraphPad Prism.

[2] = biological target: T1, IL1RL2 over-expressed on Expi293 cells; experiment: flow cytometry titration on over-expressing Expi293 cells
Description: as §1

100 nM FACS (MFI Ratio) [1] | EC50 [2] | Binder
707 | 34.5 nM | IL1RL2-165 (antibody, V domains shown, IgG2) VH: EVQLLESGGGLVQPGGSLRLSCAASGFTFSSAAMSWVRQAPGKGLEWVSAISGSGGNTYYADSVKGRFTISRDNSKNTLYLQMNSLRAEDTAVYYCARSYGGGFDYWGQGTLVTVSS VL: DIQMTQSPSSLSASVGDRVTITCSGHNLGDKFASWYQQKPGKAPKLLIYSASNLESGVPSRFSGSGSGTDFTLTISSLQPEDFATYYCQSYASQGIHYVFGQGTKVEIK
17.7 | 27.5 nM | IL1RL2-179 (antibody, V domains shown, IgG2) VH: EVQLLESGGGLVQPGGSLRLSCAASGFTFSPRRMSWVRQAPGKGLEWVSTIDDLGRHTYYADSVKGRFTISRDNSKNTLYLQMNSLRAEDTAVYYCAKLANSLLFDYWGQGTLVTVSS VL: DIQMTQSPSSLSASVGDRVTITCRASENIYSNLAWYQQKPGKAPKLLIYAASDLESGVPSRFSGSGSGTDFTLTISSLQPEDFATYYCGATDLSPWSIVFDQGTKVEIK
214 | 618 nM | IL1RL2-285 (antibody, V domains shown, IgG2) VH: EVQLLESGGGLVQPGGSLRLSCAASGFTFSNFAMSWVRQAPGKGLEWVSTISGSGGSTSYADSVKGRFTISRDNSKNTLYLQMNSLRAEDTAVYYCAREKRSSGWYPHFDYWGQGTLVTVSS VL: DIQMTQSPSSLSASVGDRVTITCRASQTIGTYLNWYQQKPGKAPKLLIYGGSRLQSGVPSRFSGSGSGTDFTLTISSLQPEDFATYYCQQSYSTPYTFGGGTKVEIK
49.6 | 100 nM | IL1RL2-298 (antibody, V domains shown, IgG2) VH: EVQLLESGGGLVQPGGSLRLSCAASGFTFPSYAMAWVRQAPGKGLEWVSAISGSGSSPYYADSVKGRFTISRDNSKNTLYLQMNSLRAEDTAVYYCAREKRSSGWYPHFDYWGQGTLVTVSS VL: DIQMTQSPSSLSASVGDRVTITCRASRSIDTYLNWYQQKPGKAPKLLIYGGSRLQSGVPSRFSGSGSGTDFTLTISSLQPEDFATYYCQQSYSTPPVTFGGGTKVEIK
19.2 | 2.25 nM | IL1RL2-299 (antibody, V domains shown, IgG2) VH: EVQLLESGGGLVQPGGSLRLSCAASGFIFSRYAMSWVRQAPGKGLEWVSAISESGGNTYYADSVKGRFTISRDNSKNTLYLQMNSLRAEDTAVYYCARQRYPGGSGSYADYWGQGTLVTVSS VL: DIQMTQSPSSLSASVGDRVTITCRASQSISTDLNWYQQKPGKAPKLLIYGVSSLQSGVPSRFSGSGSGTDFTLTISSLQPEDFATYYCQQSHSTPFTFGGGTKVEIK
21.5 | 15.2 nM | IL1RL2-180 (antibody, V domains shown, IgG2) VH: EVQLLESGGGLVQPGGSLRLSCAASGFTFSDYDMSWVRQAPGKGLEWVSAIEGAGSDTYYADSVKGRFTISRDNSKNTLYLQMNSLRAEDTAVYYCARLAPEFDYWGQGTLVTVSS VL: DIQMTQSPSSLSASVGDRVTITCRASQSISSYVNWYQQKPGKAPKLLIYQNDKRPSGVPSRFSGSGSGTDFTLTISSLQPEDFATYYCQPSFYFPYAFGQGTKVEIK
45 | 2.26 nM | IL1RL2-187 (antibody, V domains shown, IgG2) VH: EVQLLESGGGLVQPGGSLRLSCAASGFTLSSYAMSWVRQAPGKGLEWVSSISSSGGYTGYADSVKGRFTISRDNSKNTLYLQMNSLRAEDTAVYYCAKSFSFFDYWGQGTLVTVSS VL: DIQMTQSPSSLSASVGDRVTITCRASQSISSYVNWYQQKPGKAPKLLIYGSSYLQSGVPSRFSGSGSGTDFTLTISSLQPEDFATYYCQQNNNWPTTFGQGTKVEIK
23.9 | 1.57 nM | IL1RL2-300 (antibody, V domains shown, IgG2) VH: EVQLLESGGGLVQPGGSLRLSCAASGFTFSGYAMNWVRQAPGKGLEWVSTISGSGVSTYYADSVKGRFTISRDNSKNTLYLQMNSLRAEDTAVYYCAREQHLVEGDFDNWGQGTLVTVSS VL: DIQMTQSPSSLSASVGDRVTITCRTSQSISSYLNWYQQKPGKAPKLLIYAASSLQSGVPSRFSGSGSGTDFTLTISSLQPEDFATYYCQQSYNIPYTFGQGTKVEIK
